{"source": "the DeepSol protein solubility set", "assay": "soluble on expression in E. coli; label from the status in PepcDB or PDB records", "data": [{"sequence": "MGSDKIHHHHHHMGKHTKFGSSDDEGETETSVAKRQKDEKKEKKKEKRDRSRSPHKERERSPKRDRHPEKNESRRHDDRDQERRRDYGRNDRRDDRRGDGSWKTDRNDRNDRRNDFQRRDDKNRLSAEEIAAQRKALWGNKKVAGESSSSNTTDTASSSSEPATGGKNEKLWSSAIAATGVDSSKANKFMRLMGVKNAPKPTDDSSRLSDEKNRQDKMLNDLEKQYAIARETTHMGRGTGFGFGH", "values": [{"measurement": "soluble on expression in E. coli", "result": "not soluble"}]}, {"sequence": "MSLTADTKRPLTLRDVSEASGVSEMTVSRVLRNRGDVSDATRARVLAAAKELGYVPNKIAGALASNRVNLVAVIIPSLSNMVFPEVLTGINQVLEDTELQPVVGVTDYLPEKEEKVLYEMLSWRPSGVIIAGLEHSEAARAMLDAAGIPVVEIMDSDGKPVDAMVGISHRRAGREMAQAILKAGYRRIGFMGTKMPLDYRARKRFEGFTEVLGKNGVEIEDREFYSGGSALAKGREMTQAMLERSPDLDFLYYSNDMIAAGGLLYLLEQGIDIPGQIGLAGFNNVELLQGLPRKLATMDACRLEIGRKAAEIIAKRLEDPEAEIETRITLEPKISYGDTLKREGHHHHHH", "values": [{"measurement": "soluble on expression in E. coli", "result": "soluble"}]}, {"sequence": "MTKITVVGAGSWGTALAMVLADNGHDVRIWGNRSELMDEINTKHENSRYLPGITLPSTIVAYSSLEEALVDVNVVLIVVPTKAYREVLQDMKKYVAGPTTWIHASKGIEPGTSKRISEVIEEEIPEDLIKDVVVLSGPSHAEEVGLRQATTVTSAAKRMEAAEEVQDLFMNSYFRVYTNPDIVGVELGGALKNIIALAAGITDGLGLGDNAKAALMTRGLTEIARLGRKMGGNPLTFAGLTGMGDLIVTCTSVHSRNWRAGNMLGKGHSLEEVLESMGMVVEGVRTTKAAHELAEKMEVEMPITAALYDVLFNGNNVKDAVGSLMGRVRKHEVEAIPDLL", "values": [{"measurement": "soluble on expression in E. coli", "result": "not soluble"}]}, {"sequence": "DSLDEQRSRYAQIKQAWDNRQMDVVEQMMPGLKDYPLYPYLEYRQITDDLMNQPAVTVTNFVRANPTLPPARTLQSRFVNELARREDWRGLLAFSPEKPGTTEAQCNYYYAKWNTGQSEEAWQGAKELWLTGKSQPNACDKLFSVWRASGKQDPLAYLERIRLAMKAGNTGLVTVLAGQMPADYQTIASAIISLANNPNTVLTFARTTGATDFTRQMAAVAFASVARQDAENARLMIPSLAQAQQLNEDQIQELRDIVAWRLMGNDVTDEQAKWRDDAIMRSQSTSLIERRVRMALGTGDRRGLNTWLARLPMEAKEKDEWRYWQADLLLERGREAEAKEILHQLMQQRGFYPMVAAQRIGEEYELKIDKAPQNVDSALTQGPEMARVRELMYWNLDNTARSEWANLVKSKSKTEQAQLARYAFNNQWWDLSVQATIAGKLWDHLEERFPLAYNDLFKRYTSGKEIPQSYAMAIARQESAWNPKVKSPVGASGLMQIMPGTATHTVKMFSIPGYSSPGQLLDPETNINIGTSYLQYVYQQFGNNRIFSSAAYNAGPGRVRTWLGNSAGRIDAVAFVESIPFSETRGYVKNVLAYDAYYRYFMGDKPTLMSATEWGRRY", "values": [{"measurement": "soluble on expression in E. coli", "result": "soluble"}]}, {"sequence": "MGSDKIHHHHHHMVSKLLALEAYPKLKDIDFRLLRAVELNMRHHKWVPLEDIARFARMDLESASYRLGKLDKLGLVIRRSDIGYIGYQLTIHGYDALAIRAFAKKGVIEAISTTHIGVGKDADVYVAITPQGEKVAIKFNRIGERTSARKAYYHSDVFADKHHKSWLYVSRLIAKKEHEALVLLSSFAKVPKPIAWNRHAIVMEFIDGVELAELRDTDLTKEEAEEILGKVLDEYEKIVKFGIVHGDMSEFNIVITKDNDILIIDWAQYLTCANPESLGLLKRDISVLLNAFRRRWGVKRDFEEEWKRFYEAWQIGRREKEES", "values": [{"measurement": "soluble on expression in E. coli", "result": "not soluble"}]}, {"sequence": "MGSDKIHHHHHHMSDADPKVPHRGHELLDVLARLGGSARNAQIAQVMDVSEETVRRLVKTLAKQGKVERVHGGTYLRGSQDAPMYSGALEQQPKEKTRIAKGVLELIRDGMTLFINVGSTTTYVAEQLRERRDLTIVTNSISTVASLADHNGSRVFLAGGEVSRSERGCFGRATEDFARRFAYDVLVIGADAMSPELGVLAANPREAELTRALLGNATRVIVAADYRKFSAIAPCIAAPLEAITDLVTDAAPPDALQDALDRCGVATHLAAKSGRITTRTPPPQDVGHSNTNRKTLSFPTEVS", "values": [{"measurement": "soluble on expression in E. coli", "result": "not soluble"}]}, {"sequence": "MKEEATTLPQQFIKKYRLLLGEEASDFFSALEQGSVKKGFRWNPLKPAGLDMVQTYHSEELQPAPYSNEGFLGTVNGKSFLHQAGYEYSQEPSAMIVGTAAAAKPGEKVLDLCAAPGGKSTQLAAQMKGKGLLVTNEIFPKRAKILSENIERWGVSNAIVTNHAPAELVPHFSGFFDRIVVDAPCSGEGMFRKDPNAIKEWTEESPLYCQKRQQEILSSAIKMLKNKGQLIYSTCTFAPEENEEIISWLVENYPVTIEEIPLTQSVSSGRSEWGSVAGLEKTIRIWPHKDQGEGHFVAKLTFHGQNQMHKEKKTRKKSKVQMTKEQEKLWTEFSNDFHYEATGRLLVFNDHLWEVPELAPSLDGLKVVRTGLHLGDFKKNRFEPSYALALATKKIENIPCLPITQKEWQSYTAGETFQRDGNQGWVLLVLDKIPVGFGKQVKGTVKNFFPKGLRFH", "values": [{"measurement": "soluble on expression in E. coli", "result": "soluble"}]}, {"sequence": "MVELKVPMFPESVADGTLAQWNKNEGDFVNEGDILAEIETDKVVLEVPATSSGVLKGIKKHAGDTVLSEESLAIIDTAVSTSEPNQQTTNQGNASEATATGQEIDIKAPVFPESVADGTISEWHKKEGEAVSEGDILAEIETDKVVLEVPATSNGVLTKILKTAGETVLSAELIAKITAGGATATTKSEASVGVSQANNDPHLVPSARKAFNASGLDTAANIEGTGKKGRITSEDVKKAVASVNKPQQQTVVINQGARYEKRVKMTRLRQTIANRLVEVQHTNAILTTFNEVDMSAVMELRNKYKDMFVKEHDTKLGFMSFFIKAATEALKKFPDVNASIDGDEIVYHNYFDIGIAVGTDRGLVVPVLRDTDTKSLAELEADVLDKAIKGRDGKLSLEDMQGGTFTITNGGTYGSMLSTPIINSPQSAILGMHNIVERPVVVKGEIKIRPIMYLALSYDHRIIDGGTSVRFLKMIKELIEDPNRILLQV", "values": [{"measurement": "soluble on expression in E. coli", "result": "not soluble"}]}, {"sequence": "MGSDKIHHHHHHMRIVYRASETFKKVHASTALVKAIRGPIGSGKSVGCVLEMFRVAQQQEPNAQGVRKTRWACVRNTYPELKGTVIKTFQTWIPEQICPIKYDSPITGKMNINHPDGKTRIEAEFLFLSMDKPKDVKKLMSLELTGIWINEAQFLPVSLVTEAVTRTGRYPEKRVEEGFMGATWNGMIMDTNSPDDDHWWYQFEQGIDEETEQPLKPKGWEFFVQPGALIDITGMPLATLSDEIKRNIEQGHYDDYLGHRFVANPIAENVINHKKGHGYWFDNIQGQTLNWIKSRVCNEFATVQQGKPVFGDHFNKELHVSTEKLVPVKGWETFIGLDFGLTPAAIIGQIAPIGQLRIVDEIVATGMGIERFITEQLSPLLRSRYAECAIQIIGDPAGVQRAQTDERTCFQLLEEYGFNARPAESNNTTARLEAVRWWLSRLVGKGQPAMLISPHCKTLIKGYETGYAYRQLNVSGEEKYTETPDKNRYSHPHDANQYLCLGAMPSLFKEQVINIKTHQPLSNITGY", "values": [{"measurement": "soluble on expression in E. coli", "result": "not soluble"}]}, {"sequence": "MSLKISAIELYEYDLTYSHGTYVMSKGRSAKQQPSNLVRVITDSGIEGWGEAATLSGNYLPVFAGSTRAALRELAPLLIGQDPRGSTHLQRLMSSLLMGQANAKNAFDVACWDIFGKSVDLPISALIGGVLSTELPIFEAVPLSSTEESLDYIGKRSAQGIMRYQIKIGDDPVKDAARARAIVKAFPDIFFFVDANAGYTLLEAQIAMRALDDTNLYVEQPCRDIADCAMLRKISGLPIVLDEAVLTHADLYRAKYEVSAAAVNIKLGRLGGITPAVAMRNAAQDLGMHFCIEDVWGGDVTAAAVSHVAASAFPENLMHTSFFNDWTNEHVAGYQPRSRNGRGAAPTGPGLGITVDRSLLGAPVASFSEGHHHHHH", "values": [{"measurement": "soluble on expression in E. coli", "result": "soluble"}]}, {"sequence": "MLPSISINNTSAAYPESINENNNDEINGLVQEFKNLFNGKEGISTCIKHLLELIKNAIRVNDDPYRSNINNSSVTYIDIGSNDTDHITIGIDNQEPIELPANYKDKELVRTIINDNIVEKTHDINNKEMIFSALKEIYDGDPGFIFDKISHKLRHTVTEFDESGKSEPTDLFTWYGKDKKGDSLAIVIKNKNGNDYLSLGYYDQDDYHIQRGIRINGDSLTQYCSENARSASAWFESSKAIMAESFATGSDHQVVNELNGERLREPNEVFKRLGRAIRYNFQVDDAKFRRDNVKEIISTLFANKVDVDHPENKYKDFKNLEDKVEKRLQNRQTKYQNEINQLSALGVNFDDI", "values": [{"measurement": "soluble on expression in E. coli", "result": "not soluble"}]}, {"sequence": "MTKTTILLLCGGGSSEHEISLVSANYIQQQLELTPEFHVIRVEMKKEGWFSEQGALVYLDTNSATLNSDKASYPIDFVVPCIHGFPGETGDIQSMLELAGIPYLGCGPEASANSFNKITSKLWYDALDIPNTPYLFLTQNTPSSIDKAKQAFGHWGSIFVKAARQGSSVGCYKVTTEDQIAPAIEAAFGFSEQVLVEQAVKPRELEVSAYEMNGKLYISKPGEVIAPEGTFYSYEEKYSANSHARTVLEAENLTEKHKELIQTYAERVFIHMKLRHLSRIDFFLTQEGQIYLNEVNTFPGMTPISMFPKMLEHNGHRFSEFLVQCVTNTLVNAK", "values": [{"measurement": "soluble on expression in E. coli", "result": "not soluble"}]}, {"sequence": "MILFDFKDLSAATSWYGVNDTVMGGLSRSKLTISPLGYGIFSGHVSLANGGGFASVRCEFEHVNVAEFTGIYLDLDSDRSKQYKVNLKDADTPQSTVYQAIMPAPTHQTFGLSGASAIHWQRIEIPFTNFHPQCRGKPIAGAAIDLRRLTSIGLVIGAQQSGDFALKIKSIGCYLEHHHHHH", "values": [{"measurement": "soluble on expression in E. coli", "result": "soluble"}]}, {"sequence": "MTKKALSAVILAAGKGTRMYSDLPKVLHTIAGKPMVKHVIDTAHQLGSENIHLIYGHGGDLMRTHLANEQVNWVLQTEQLGTAHAVQQAAPFFKDNENIVVLYGDAPLITKETLEKLIEAKPENGIALLTVNLDNPTGYGRIIRENGNVVAIVEQKDANAEQLNIKEVNTGVMVSDGASFKKWLARVGNNNAQGEYYLTDLIALANQDNCQVVAVQATDVMEVEGANNRLQLAALERYFQNKQASKLLLEGVMIYDPARFDLRGTLEHGKDVEIDVNVIIEGNVKLGDRVKIGTGCVLKNVVIGNDVEIKPYSVLEDSIVGEKAAIGPFSRLRPGAELAAETHVGNFVEIKKSTVGKGSKVNHLTYVGDSEIGSNCNIGAGVITCNYDGANKFKTIIGDDVFVGSDTQLVAPVKVANGATIGAGTTITRDVGENELVITRVAQRHIQGWQRPIKKK", "values": [{"measurement": "soluble on expression in E. coli", "result": "soluble"}]}, {"sequence": "MNGASRGDVQRPTPVQAPAKRPIPPTVFRFEKASKIGTSLDTTPKELPIRRPVPLPGPRFVKDVNPSPPATSSPNVQTQCHQPPVVRSQTHQASVSQTTPTQTTPSQYTPASVSTARAPQFHRSSHVTPSQQQRIEQAFGPAPVSQSQPQNGSYIQYNEPSTSVASTTTSFYSPNESEPVFTHAISFKPNEPENGQKAREQLELLDSGKINEINQSKVPTTIELPPNCKLFQYSWVLDGIPRTLLVPMPMDATEEDVKAMLPKTLEMDSNLFNNARPRDELPVLSFPNGTVPNVEMIGPKVQQPMLVNPKQFNRIMRRREMRQQLEASGRLPLARQKYLHESRHLHALKRKRGLDGRFDNTKTAESSSMVSSTTSPRKLKRRNRLPGEETSDSSSIVLPSPVEIQPKGGIVNSSMPSTSTGYINNGMDHQTDYIEHQQPMSTYDQYHDHVQYIAPDGNVNYHNNHDNGVDLTGSDGQSFTNL", "values": [{"measurement": "soluble on expression in E. coli", "result": "soluble"}]}, {"sequence": "MKTAIVYYSQHHGNTKKLLDAIAIVDDVTLIDVTKHTAYDLNEFNLIGFASGIYFQKFSKKVLDFAKNNLPFNKKVFFIYTCGIKFPSYTVAIRAVVKEKNADIVGEYGCPGFDTFGPFKIVGGIRKGRPNENDIAKAVQFFRGILKLEHHHHHH", "values": [{"measurement": "soluble on expression in E. coli", "result": "soluble"}]}]}
